This experiment addresses T1, split luciferase wild-type (WT) Apaf-1 (apoptotic protease activating factor-1), O14727.
T1 chain: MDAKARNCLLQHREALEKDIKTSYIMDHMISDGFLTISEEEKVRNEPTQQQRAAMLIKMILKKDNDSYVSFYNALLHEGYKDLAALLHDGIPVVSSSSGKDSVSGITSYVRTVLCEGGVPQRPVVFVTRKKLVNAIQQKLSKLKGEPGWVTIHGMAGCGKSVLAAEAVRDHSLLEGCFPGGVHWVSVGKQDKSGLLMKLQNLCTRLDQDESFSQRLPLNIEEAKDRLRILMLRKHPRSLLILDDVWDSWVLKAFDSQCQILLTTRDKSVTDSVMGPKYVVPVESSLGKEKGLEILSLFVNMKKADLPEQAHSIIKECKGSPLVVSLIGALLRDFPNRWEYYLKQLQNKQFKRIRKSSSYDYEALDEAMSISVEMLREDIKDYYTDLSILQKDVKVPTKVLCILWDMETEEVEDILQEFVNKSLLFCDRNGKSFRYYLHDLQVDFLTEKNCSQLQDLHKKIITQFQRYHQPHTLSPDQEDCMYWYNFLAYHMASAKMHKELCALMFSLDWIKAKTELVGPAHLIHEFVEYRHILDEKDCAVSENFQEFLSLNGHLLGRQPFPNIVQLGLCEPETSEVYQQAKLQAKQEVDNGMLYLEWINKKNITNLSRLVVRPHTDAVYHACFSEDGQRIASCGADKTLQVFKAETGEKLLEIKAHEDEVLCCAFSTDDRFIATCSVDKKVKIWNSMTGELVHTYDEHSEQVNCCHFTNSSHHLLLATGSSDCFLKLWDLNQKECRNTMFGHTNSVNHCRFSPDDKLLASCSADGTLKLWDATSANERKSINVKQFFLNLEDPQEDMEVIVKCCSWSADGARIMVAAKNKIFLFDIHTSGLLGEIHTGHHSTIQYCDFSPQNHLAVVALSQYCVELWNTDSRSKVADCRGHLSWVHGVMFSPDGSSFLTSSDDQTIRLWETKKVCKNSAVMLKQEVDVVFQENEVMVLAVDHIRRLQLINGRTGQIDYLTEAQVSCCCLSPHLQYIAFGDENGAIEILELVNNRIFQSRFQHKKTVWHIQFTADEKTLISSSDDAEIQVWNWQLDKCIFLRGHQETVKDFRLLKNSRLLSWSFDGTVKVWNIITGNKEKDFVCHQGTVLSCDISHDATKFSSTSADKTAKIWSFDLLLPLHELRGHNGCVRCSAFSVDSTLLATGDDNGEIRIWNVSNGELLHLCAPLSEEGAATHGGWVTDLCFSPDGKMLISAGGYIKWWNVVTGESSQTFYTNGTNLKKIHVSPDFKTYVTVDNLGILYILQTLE
Description: split reporter. The conditions noted are these: remark: other sources report otherwise.

The record followed here is PMC8427654.

B1: split luciferase wild-type (WT) Apaf-1 (apoptotic protease activating factor-1), O14727 1-1248 (natural protein)
chain: T1 chain
On to B1, for which the luciferase activity, fold over pcDNA3 transfection control was found to be 32 fold.
